Reference: the nanobody polyreactivity screen of Harvey et al. (2022)

Assay: yeast display, Sf9 membrane polyspecificity reagent, FACS + sequencing; frameworks hold sequencing errors
Summary of the method: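 Genes from sorted yeast were amplified by colony PCR, read by MiSeq 2 × 250 sequencing and filtered on CDR length. These cells carried a synthetic nanobody library in Saccharomyces cerevisiae BJ5465 and were sorted by FACS into low and high (top ~1%) gates on anti-HA and streptavidin fluorescence. Polyreactivity is labelled according to the gate of origin.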

Sequence	polyreactivity (PSR sort gate)
QVELVESGGGLVQAGGSLRLRCAASGLTFYYYPMGWYRQAPGKERELFAAIASVGSTYYADSVKGRFTISRDNATNTVYLQMNSLKPDDTAVYYCAAKSFWWHEDYWGQGTQVTVSS	low polyreactivity
QVELVESGGGLVQAGGSLRLSCAASGFIFTYYAMGWYSQAPWKERELVATISSGGGSTYYADSVKGRFTISRDNAKNTVYLQMYSLNPEDTAVYYCAASRRITGIRYINRYAYWGQGTQVTVSS	high polyreactivity
QVELVESGGGLVQAGGSLRLSCAASGFTFNGTAMGWYRQAPGKDRELVAAMSRGGSPSYADSVKGRFTISRDNAKKTVYLPMNSLKPEATAVYYCAAVSYGRFRRYEYWVQGTQVTVSS	high polyreactivity
QVELVESGGGLVQAGGSLRLSCAASGYIFNYYAMGWYRQAPGKERELVAAISTSGGSTYYADSVKGRFTISRDNAKNTVYLQMNSLKPEDTAVYYCAAVDYKANGYGYWGQGTQVTVSS	high polyreactivity
QVHFVESGGGLVQAGGSLSLSCAASGLTFSYYAMGWYRQAPGKERELVARISNSGGCTYYADSVKGRFTISRDNAKITVYLQMNSLKPEDTAVYYCAALHTSLHRNKYEYWGQGTQVTVSS	high polyreactivity
QVHHLESRGGLVQEGGSLPISCGASGSTFLRYALGWYRQAPGKVRELVADITTSGGITYYADSVKGRFTISRDNAKYTVYLQLNSLKPEDTAVYDCDYWGQGTQVTVSS	low polyreactivity
QVHHVESGGGLVQAGGSLRLSCAASGFIFTYNAMGWYRQAPGKERELVAAIRSGTNTSYADSVKGRFTISRDNAKNTVYLQMNSLKPEDTAVYYCNREVPEYQGFITPDGYWGQGTQVTVSS	low polyreactivity
QVHHVESGGGLVQAGGSLRLSCAASGGTFRVYTMGWYRQAPAKVRELVAAITRNGGSTYYADSVKGRFTISRDNAKNSVYVQMNSLKPDDTAVYYCAARGGVPYSHAYDYWGQGTQVTVSS	low polyreactivity
QVHHVESGGGLVQAGGSLRLSCAASGRIFYPYAMGWYRQAPGKERELVASITSGGGTYYADSVKGRFTISRDNAKNTVYLQMNSLKPEDTAVYYCAAKYYTSWIRYDYWGQGTQVTVSS	low polyreactivity
QVHHVESGGGLVQAGGSRRLSSAASRIIIDTNAMGWSSQAPGKERELVASISTRGGSTYYADSVKGRFTISRDNAKNTVYLQMISLKPANTPVYYCNAVQTYSGGYEYWGQGTQVTVSS	high polyreactivity
QVHIVESGGGLVQAGGSLRISCAASGRILLLYDMGWYRQAPGKERELVAAINWDGGYSYADSVKGRFTISRDNANNTVFLQMNSLKPADTAVYYCAKDDIWEHYDYWGQGTQVTVSS	low polyreactivity
QVHIVESGGGLVQAGGSLRLSCGASGFTFIYAMGWYRQAHAKEREMVAAITRSGGSTYYADSVKGRFTISRDNAKNTVYSQMNILKPEDTAFYYCAARLRYQGRGYRYWGQGTQVTVSS	high polyreactivity
QVHLEESCGGLVQAGGTLRLSCAASGSTFPRYVMGWYRQAPGKERELVAAITSGGSTYYADSVKGRFTISRDNAKNTVYLQMNRLKPEDTAVFYCAAGSYRVVWYDSWGQGTLVTVSS	high polyreactivity
QVHLEESGGGIVQAGGSLRLSCAASGFTFPVHAMGWYRQAPGKERQLVAAIRWIGGDTYYADSVKGRFTISRDNAKNTVYLQMNSLKPEDTAVYYCAAEDTDDYSIWFEYWGQGTQVTVSS	high polyreactivity
QVHLEHSAGGLVQAGGILRLSSPASGSIVVTNAMGWYRQAPGKERELVAAISNSGSSTYYADSVKGRFTISRDNSKNTVYLQMNSLKPEDTAVYYCAADEPTWDWSYPYGYWGQGTQVTVSS	high polyreactivity
QVHLLERGGGLVQAGGSLRLSCMASGSILGDSMSWYRQAPGKEHELVATIYDGGITYYADSMKGRFTISRDNAKNSVYLQMNSLRPEDTAVYYCGASFEGYSYHVYCGQGTQVTVSS	low polyreactivity
QVHLLESGGGLLQAGGSLLISCAAAGRTFGQNAMGWSRQAPGKARELVASIRSGGITDYADSVKGRYTISRDNAKYSVYLQMNSLKPEDTAVYYCNAEGVWWSTRYDSWGQGTQVTVSS	low polyreactivity
QVHLLESGGGLVKAGGILRLSCAASGYIFPRYAMGSYRQSPGKDRELVAAITSGGSTYYADSVKGRFTISRDNAKNTVYLQMNSLKPEDTAVYYCIDPYHGREYEWGQGTQVTVSS	high polyreactivity
QVHLQEIGGGLVQAGGSLRQSCAASGTISDSGLMGWYRQAPGKERELVAGISSGGITNYADSVKGRFTISRDNAKNTVYLQMNSLKPEDTAVYWGQGTQVTVSS	low polyreactivity
QVHLQERGGGLLQACGSQRLSCAASGSISEVQYMGWYRRAPGKEREFVAGIAPGATTYYADSVKCRFTISRDNAKNTVFLQMNSLNPEYTDVDYFEDRYVTETDHDYWGQGTQVTVCS	low polyreactivity
QVHLQESGGGLVQAGGSLRLSCAASGTIFASQHMGWYRQAPGKERELVASIAKGGTTYYADSVKGRFTISRGNAKNTEYLQMNRLKPEDTAVYYCAARGWGYRRTYVYAWYDYWGQGTQVTVSS	high polyreactivity

Sequence	polyreactivity (PSR sort gate)
QVHLQESGGGMVQAGGSLRLSCAESGNIFLGDTMGWYRQPPGKEREFVAGIARGGNPYYADSLKGRFTISRNNAKNTVYLQKNSLKPEDTAVHYCAFLRSHASDYIYWGQGTQVTVSS	low polyreactivity
QVHLVDSGGGLVQAGGSLRFSCAASGSIFGWYAMGWYRQAPGTERELVDSIAVTAGSTYYADSVKWRFPISRDKAKNTGYLQLNRLKPEDTALYSCAADDYSADAVQRFYYWGQGSQVTVSS	low polyreactivity
QVHLVDSGGGLVQAGGSLRLSCAASGFIFSKYAMGWYRQAPGKERELVAAISWNGGSTYYADSVKGRFTISRDNAKNTVYLQMNSLKPEDTAVYYCNARGRYRKSERRAFDYWGQGTQVTVSS	high polyreactivity
QVHLVDSGGGLVQAGGSLRLSCAAYGSTFHPYAMGWYRQAPGKERELVADITSSGSTHYADSVKGRFTISRDNAKNTVYLQMNSLKPEDTAVYYCAAGIPWASDSGDPSFEYWGQGTEVTVSS	low polyreactivity
QVHLVDSGGGLVQAGGSLRLSSAASGRIFGHYALGGYRQAPGKPRELVAAIRYSAGRTYYAGSVKGRFTISRDNAKNSVNLQMNSLKPEDTSVYYCAKTCRYLTGGGDYWGQGTQVTVSS	high polyreactivity
QVHLVDSGGGLVQAGGSLSLRCAASRRSFVPYAMGWYSQGPGKEREFLADITWSTCTSTYYADSEKGRFTISRDNAKNTVYLHMNSLKPEDTAVYYCAVDIWWPNWYYIYWGQGTQVTLSS	low polyreactivity
QVHLVDSGGGVVVAGGRLRLSCAASVFTFDRNAMGWYRHARGKERALVAAISSSGGRTYYADSVKGRFTISRDNAKNTFYLQMNSLKPEDTAVYYCNAVPSARTQPYNGWGQGSQVTVSS	high polyreactivity
QVHLVDSRGGLVQAGGSLRLSCAASGRISVFYTMGWYRQEPGKEREMVATITTSGGFTYYADSVKGRFTNSRDNAKNTVYLLMNSLKPEDTAVYYCAAVLGYRFYEYYFWGQGTQVTVSS	low polyreactivity
QVHLVEAGGGLVQAGGSLRYSCAASGYTFKLYAMGWYRQAPGKESELVAAITSGGSTSFADSVKGRFTISRDNAKNTVYLQMNSLKPEDTAVYYCAKRYSSYRAWYRNVGYYYWGLGTQVTVSS	high polyreactivity
QVHLVESAAGLVQAGGSLRLSCAASGSTFIGNAMVWYRQAPGKERELVAAITRSGGTTYYADSVKGRFTISRDNAKNTVYLQMNSLKPEDTAVYYCNKTHFFGYDSWGQGTQVTVSS	low polyreactivity
QVHLVESAAGLVQEGGSLRVSCAASGRIFDIYAMGGYRQSTGKERELVAAITLRGGTTYADSVKGRFTISRDNAKNSVYLQMNSLKPEDTAVYYCARYHWYYRVSKSESWGQGTQVTVSS	high polyreactivity
QVHLVESCGGLVQAGGSLRLSCAASGNTFVYNDMGWYRQAPGKERELVDDIRYSGSTYYADSVKGRFTISRDNAKNTVYLQMNSLKPEDTAVYYCAKAYYVLSWMGYWGQGTQVTVSS	low polyreactivity
QVHLVESGGAFVQAGGSLRLSCAASGRTFGYKAMGWYRQAPVNERELVAAITAGGSTNYADSVKGRFTISRDNAKKTVELQMNRLKPEDTAVYDSAARTYYVPYYYWGQGTQVTVSS	high polyreactivity
QVHLVESGGCLVQAGGSLRLICAASGRIFDGNTMGWYRQEPGKERELVAAISGVGSTDYADSVKGRYTISRDNAKNTVYFQINSLKPEDTAVYYCAATTGPVPLKGDYWGQGTQVTVSS	low polyreactivity
QVHLVESGGCLVQSGGSLRLSCAASGSTFPSYAKGWYRQAPGKERELVAAINSGGGTNYADSVKGRFTISRDNAKNTVYLQMNILKPEDTAVYYCAADVWKLYAYWGQGTQVTVSS	low polyreactivity
QVHLVESGGGIVQAGGSLRLSCAASVRTFQYYAMGWYRKAPGKEREFVAAITRTGARTYYADSVKGRFTISRDNAKNTVYLQMNSLKPEDTAVYYCAKSLTFYSWRDYGYWGQGTQVTVSS	high polyreactivity
QVHLVESGGGIVQARGSLRLSCDASGFIFYDYAMGSYRLAPGKEWELVAAISKRGGSRYYADSVKGRFTISRDNAKNTVYLQMNSLKPEDTAVYYCATEVEPYAYGYWGQGTQVTVSS	high polyreactivity
QVHLVESGGGLDQAGGSLRLSCAASGRIFPLYAMGWYRQAPGKERELVAAISSGGTTYYADSVKGRFTISRDNAKNTVYLQMHSLKPEDTAVYYCARRPAQRWGRFDYWGQGTQVTVSS	low polyreactivity
QVHLVESGGGLIQAGGSLRISSAPSGSTFGTYVMGWSRQAPGKERELVAAISKRGGRTYYADSVKGRFTISRDNAKNTVYVPMTSLKAEDTAVYYCYAVYLYSGSSARYYWGQGTEVTVSS	high polyreactivity
QVHLVESGGGLLQAGGSLRLSCAASGFTFFVNAMGWYRQAPGKERELVAAISIRSGGRTYYADSVKGRFTISRENAKNTVYLQMNSLKPEDTAVYYCAAESSRPEHTFHYYRFLFDYWGQGTQVTVSS	low polyreactivity
